Reference: patent US20200199244A1 (published 2020)
“And” between values parts separate entries of the source, which are not always exact repeats. Identical values can stand only once. Each block holds one binder with its values, some of them ahead of it.

What was measured:
[1] = target: T1, Macaca fascicularis CD40 (Macaca fascicularis (cynomolgus monkey), UniProt P25942 21-277 (human entry)); experiment: cell-based or functional assay
T1 chain: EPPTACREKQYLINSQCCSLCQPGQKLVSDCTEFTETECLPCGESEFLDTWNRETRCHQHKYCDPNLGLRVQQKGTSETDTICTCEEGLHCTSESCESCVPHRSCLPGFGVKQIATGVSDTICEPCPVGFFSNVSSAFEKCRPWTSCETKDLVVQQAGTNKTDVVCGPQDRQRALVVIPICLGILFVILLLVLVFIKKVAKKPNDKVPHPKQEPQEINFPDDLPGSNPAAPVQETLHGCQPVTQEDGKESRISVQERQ

[2] = target: human CD40 (human, UniProt P25942 21-277); experiment: cell-based or functional assay
[3] = target: T2, human CD40 (BMS, CY24FEB06-01) (human, UniProt P25942 21-193); experiment: bead RBA, competition with IZ-CD40L
T2 construct: Soluble reagent of the bead and ELISA RBA; It is detected with an anti-human IgG (Fc) mAb, so it may be a CD40-Ig fusion

[4] = target: T3, human CD40 (BMS, CY24FEB06-01) (human, UniProt P25942 21-193); experiment: ELISA RBA, competition with IZ-CD40L for soluble human CD40;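 note: Neutravidin-coated 384-well plates, dAb–human CD40 complex incubated 2 h at room temperature, read-out as absorbance at 450 nm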
T3 construct: Soluble human CD40 reagent of the ELISA RBA

[5] = target: human CD40 on RAMOS human B cells (human, UniProt P25942 21-277); experiment: cell-based or functional assay
[6] = target: T4, wild type cynomolgus monkey CD40 Fc fusion (cynomolgus monkey; human); experiment: SPR ProteOn XPR36;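 note: surface plasmon resonance with CD40-Fc fusions captured through their Fc on an anti-human IgG chip, sensorgrams reference-subtracted against surfaces lacking CD40-Fc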
T4 construct: also called wt-cyno-CD40; wt-cCD40; not shown: human IgG1 Fc
T4 chain: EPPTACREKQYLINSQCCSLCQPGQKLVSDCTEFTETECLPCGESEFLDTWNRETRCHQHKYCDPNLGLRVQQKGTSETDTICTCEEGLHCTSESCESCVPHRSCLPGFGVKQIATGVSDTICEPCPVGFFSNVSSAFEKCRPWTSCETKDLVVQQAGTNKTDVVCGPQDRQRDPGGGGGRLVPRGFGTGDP

[7] = target: T5, human CD40 (H76R, W109L, L121P) Fc fusion (human); experiment: SPR ProteOn XPR36;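 note: surface plasmon resonance with CD40-Fc fusions captured through their Fc on an anti-human IgG chip, sensorgrams reference-subtracted against surfaces lacking CD40-Fc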
T5 construct: As m1 with H76R, W109L and L121P; also called hCD40-M5; not shown: human IgG1 Fc
T5 chain: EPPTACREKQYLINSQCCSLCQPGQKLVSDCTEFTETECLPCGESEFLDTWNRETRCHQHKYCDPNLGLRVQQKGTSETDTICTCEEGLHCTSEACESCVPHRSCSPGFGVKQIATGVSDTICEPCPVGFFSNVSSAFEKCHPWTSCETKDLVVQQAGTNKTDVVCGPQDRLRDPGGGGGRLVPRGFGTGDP

[8] = target: T6, human CD40 (W109L, L121P) Fc fusion (human, UniProt P25942 21-193); experiment: SPR ProteOn XPR36;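 note: surface plasmon resonance with CD40-Fc fusions captured through their Fc on an anti-human IgG chip, sensorgrams reference-subtracted against surfaces lacking CD40-Fc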
T6 construct: As m1 with W109L and L121P; also called hCD40-M4; not shown: human IgG1 Fc

B1: BMS3h-197 (other)
VH: EVQLLESGGGLVQPGGSLRLSCAASGFTFGSAAMDWVRQAPGKGLEWVSSINDMGSNTYYADSVKGRFTISRDNSKNTLYLQMNSLRAEDTAVYYCAKQGGRFDYWGQGTLVTVSS
hIZCD40L-driven Cyno B Cell Proliferation EC50 [1]: > 7 µM
hIZCD40L-driven Human B Cell Proliferation EC50 [2]: 360 nM

B5: BMS3h-38 (other)
VH: EVQLLESGGGLVQPGGSLRLSCAASGFTFEEEEMIWVRQAPGKGLEWVSAISGSGGSTYYADSVKGRFTISRDNSKNTLYLQMNSLRAEDTAVYYCAKEPFRFDYWGQGTLVTVSS
notes: dAb, single VH
EC50 [3]: 600 nM and 650 nM

B6: BMS3h-37-2 (other)
VH: EVQLLESGGGLVQPGGSLRLSCAASGFTFEWYEMQWVRRAPGKGLEWVSAISGDGYRTYYADSVKGRFTISRDNSKNTLYLQMNSLRAEDTAVYYCAKELGYFDYWGRGTLVTVSS
hIZCD40L-driven Cyno B Cell Proliferation EC50 [1]: > 7 µM
CHO-hCD40L-driven DC Activation IL-12 EC50 [2]: 13 nM
T-B cell MLR EC50 [2]: 198 nM
hIZCD40L-driven Human B Cell Proliferation EC50 [2]: 5 nM

B7: BMS3h-41 (other)
VH: EVQLLESGGGLVQPGGSLRLSCAASGFTFTEYEMIWVRQAPGKGLEWVSSISGNGANTYYADSVKGRFTISRDNSKNTLYLQMNSLRAEDTAVYYCAKEPLRFDYWGQGTLVTVSS
notes: dAb, single VH
EC50 [3]: 2000 nM and 1600 nM

B8: BMS3h-202 (other)
VH: EVQLLESGGGLVQPGGSLRLSCAASGFTFPTAEMVWVRQAPGKGLEWVSSISASGGSTYYADSVKGRFTISRDNSKNTLYLQMNSLRAEDTAVYYCAKEPVSYVATFDYWGQGTLVTVSS
notes: dAb, single VH
EC50 [3]: 3700 nM and 3000 nM

B9: BMS3h-56-201 (other)
VH: EVQLLESGGGLVQPGGSLRLSCAASGFTFRDYEMWWVRQAPGKGLERVSAINPQGTRTYYADSVKGRFTISRDNSKNTLYLQMNSLRAEDTAVYYCAKLPFYFQEWGQGTLVTVSS
notes: domain antibody (dAb): single human VH domain
EC50 [4]: 3.7 nM and 2.3 nM
EC50 ICAM1 cell assay [5]: 10 nM

B10: BMS3h-56-1 (other)
VH: EVQLLESGGGLVQPGGSLRLSCAASGFTFRDYEMWWVRQAPGKGLERVSAINPQGTRTYYADSVKGRFTISRDNSKNTLYLQMNSLRAEDTAVYYCAKLPFTFEDWGQGTLVTVSS
notes: domain antibody (dAb), single VH domain; also called 3h-56-l
binding result [6]: no binding (tested: 405 nM)
binding result [7]: no binding (tested: 405 nM)
binding result [8]: no binding (tested: 405 nM)

B11: BMS3h-56 (other)
VH: EVQLLESGGGLVQPGGSLRLSCAASGFTFRDYEMWWVRQAPGKGLERVSAINPQGTRTYYADSVKGRFTISRDNSKNTLYLQMNSLRAEDTAVYYCAKLPFIFDYWGQGTLVTVSS
notes: dAb, single VH
EC50 [3]: 1000 nM and 500 nM

B17: BMS3h-37 (other)
VH: EVQLLESGGGLVQPGGSLRLSCAASGFTFEWYEMQWVRQAPGKGLEWVSAISGDGYRTYYADSVKGRFTISRDNSKNTLYLQMNSLRAEDTAVYYCAKELGYFDYWGQGTLVTVSS
notes: dAb, single VH
EC50 [3]: 100 nM and 200 nM

B21: BMS3h-56-217 (other)
VH: EVQLLESGGGLVQPGGSLRLSCAASGFTFRDYEMWWVRQAPGKGLERVSAINPWGSLTYYADSVKGRFTISRDNSKNTLYLQMNSLRAEDTAVYYCAKLPFTFEDWGQGTLVTVSS
notes: domain antibody (dAb), single VH domain
binding result [6]: no binding (tested: 405 nM)
binding result [7]: no binding (tested: 405 nM)
binding result [8]: no binding (tested: 405 nM)

Further lines, results first:

EC50 [3]: 1000 nM
B2: BMS3h-193 (other)
VL: DIQMTQSPSSLSASVGDRVTITCRASQTIERRLNWYQQKPGKAPKLLIYLASRLQSGVPSRFSGSGSGTDFTLTISSLQPEDFATYYCHQYASPPLTFGQGTKVEIKR
notes: dAb, single VK

hIZCD40L-driven Cyno B Cell Proliferation EC50 [1]: > 7 µM
hIZCD40L-driven Human B Cell Proliferation EC50 [2]: 3400 nM
B3: BMS3h-37 (other)
VH: EVQLLESGGGLVQPGGSLRLSCAASGFTFEWYEMQWVRQAPGKGLEWVSAISGDGYRTYYADSVKGRFTISRDNSKNTLYLQMNSLRAEDTAVYYCAKELGYFDYWGQGTLVTVSS

hIZCD40L-driven Cyno B Cell Proliferation EC50 [1]: > 7 µM
hIZCD40L-driven Human B Cell Proliferation EC50 [2]: 2800 nM
B4: BMS3h-38 (other)
VH: EVQLLESGGGLVQPGGSLRLSCAASGFTFEEEEMIWVRQAPGKGLEWVSAISGSGGSTYYADSVKGRFTISRDNSKNTLYLQMNSLRAEDTAVYYCAKEPFRFDYWGQGTLVTVSS

EC50 ICAM1 cell assay [5]: 5 nM
B12: BMS3h-56-206 (other)
VH: EVQLLESGGGLVQPGGSLRLSCAASGFTFRDYEMWWVRQAPGKGLERVSAINPQGTRTYYADSVKGRFTISRDNSKNTLYLQMNSLRAEDTAVYHCAKLPMFFEDWGQGTLVTVSN

binding result [6]: no binding (tested: 405 nM)
binding result [7]: no binding (tested: 405 nM)
binding result [8]: no binding (tested: 405 nM)
B13: BMS3h-56-5 (other)
VH: EVQLLESGGGLVQPGGSLRLSCAASGFTFRDYEMWWVRQAPGKGLERVSAINPQGTRTYYADSVMGRFTISRDNSKNTLYLQMNSLRAEDTAVYYCAKLPFTFDDWGQGTLVTVSS
notes: as for B21

EC50 ICAM1 cell assay [5]: 80 nM
B14: BMS3h-56-202 (other)
VH: EVQLLESGGGLVQPGGSLRLSCAASGFTFRDYEMWWVRQAPGKGLERVSAINPQGTRTYYADSVKGRFTISRDNSKNTLYLQMNSLRAEDTAVYYCAKLPTYFSDRGQGTLVTVSS

binding result [6]: no binding (tested: 405 nM)
binding result [7]: no binding (tested: 405 nM)
binding result [8]: no binding (tested: 405 nM)
B15: BMS3h-56-202 (other)
VH: EVQLLESGGGLVQPGGSLRLSCAASGFTFRDYEMWWVRQAPGKGLERVSAINPQGTRTYYADSVKGRFTISRDNSKNTLYLQMNSLRAEDTAVYYCAKLPTYFSDRGQGTLVTVSS
notes: as for B21

binding result [6]: no binding (tested: 405 nM)
binding result [7]: no binding (tested: 405 nM)
binding result [8]: no binding (tested: 405 nM)
B16: BMS3h-56-2 (other)
VH: EVQLLESGGGLVQPGGSLRLSCAASGFTFRDYEMWWVRQAPGKGLERVSAINPQGTRTYYADSVKGRFTISRDNSKNTLYLQMNSLRAEDTAVYYCAKLPFTFDDWGQGTLVTVSS
notes: as for B21

EC50 [4]: 3.2 nM and 4.6 nM
EC50 ICAM1 cell assay [5]: 40 nM
B18: BMS3h-56-215 (other)
VH: EVQLLESGGGLVQPGGSLRLSCAASGFTFRDYEMWWVRQAPGKGLERVSAINPHGSLTYYADSVKGRFTISRDNSKNTLYLQMNSLRAEDTAVYYCAKLPFTFDDWGQGTLVTVSS
notes: as for B9

binding result [6]: no binding (tested: 405 nM)
binding result [7]: no binding (tested: 405 nM)
binding result [8]: no binding (tested: 405 nM)
B19: BMS3h-56-206 (other)
VH: EVQLLESGGGLVQPGGSLRLSCAASGFTFRDYEMWWVRQAPGKGLERVSAINPQGTRTYYADSVKGRFTISRDNSKNTLYLQMNSLRAEDTAVYHCAKLPMFFEDWGQGTLVTVSN
notes: as for B21

EC50 [4]: 5.2 nM and 4.3 nM
EC50 ICAM1 cell assay [5]: 70 nM
B20: BMS3h-56-203 (other)
VH: EVQLLESGGGLVQPGGSLRLSCAASGFTFRDYEMWWVRQAPGKGLERVSAINPQGTRTYYADSVKGRFTISRDNSKNTLYLQMNSLRAEDTAVYYCAKLPFFFEEWGQGTLVTVSS
notes: as for B9

hIZCD40L-driven Cyno B Cell Proliferation EC50 [1]: > 7 µM
CHO-hCD40L-driven DC Activation IL-12 EC50 [2]: 289 nM
CHO-hCD40L-driven Human B Cell Proliferation EC50 [2]: 723 nM
T-B cell MLR EC50 [2]: 986 nM
hIZCD40L-driven Human B Cell Proliferation EC50 [2]: 10 nM
B22: BMS3h-38-2 (other)
VH: EVQLLASGGGLVQPGGSLRLSCAASGFTFEEEEMIWVRQAPGKGLEWVSAISGSGGSTYYADSVKGRFTISRDNSKNTLYLQMNSLRAEDTAVYYCGKEPFRYDYWGQGTLVTVSS

EC50 [3]: 500 nM and > 1000 nM
B23: BMS3h-131 (other)
VL: DIQMTQSPSSLSASVGDRVTITCRANSSILWALAWYQQKPGKAPKLLIESSSGLQSGVPSRFSGSGSGTDFTLTISSLQPEDFATYYCVQNAGWPGTFGQGTKVEIKR
notes: dAb, single VK
